We go through 3 molecules from patent US20100291106A1 (Novartis, published 2010).

The term IC50 denotes the point on the concentration scale where inhibition reaches its midpoint. In general, Kd refers to the constant that tells how readily two partners part at equilibrium. By EC50 is commonly meant the concentration needed to bring the measured effect to its halfway point. As a reminder, the koff is the first-order rate constant of dissociation. As usually defined, the kon is the second-order rate constant of association.

Assay [1] concerns the target T1, human C3d (human, UniProt P01024 1002-1303).
T1 construct: domain: C3d
Briefly: cross reactivity, ELISA on C3d, anti-His detection.

Assay [2] deals with T2, human complement C3b protein (human, UniProt P01024 23-667; P01024 749-1663). Briefly: cell-based or functional assay.
Assay [3] deals with T3, cynomolgus complement C3b protein (cynomolgus monkey (Macaca fascicularis)). In words: cell-based or functional assay.
The next assay deals with T4, human C5 (human, UniProt P01031 19-673; P01031 678-1676).
T4 construct: Captured by an anti-C5 antibody in the ELISA
Briefly: Direct ELISA at 2 ug/ml C5, 200 nM Fab. A general note: ELISA stands for enzyme-linked immunosorbent assay.

Assay [4] addresses T2, human complement C3b protein. In words: bead proximity assay, C3b-acceptor beads; competitor biotinylated fB(D24G/N260D). The procedure:
(§1) In brief, purified C3b and fP were conjugated to unconjugated acceptor or donor beads (PerkinElmer) using AminoLink Reductant (Pierce) during a 48 h incubation at room temperature. Beads were quenched using Carboxymethoxylamine Hemihydrochloride (Aldrich), and purified by centrifugation at 13000 rpm and three washes with 0.1M TBST. Purified fB(D24G/N260D) and fH were biotinylated during a 30 min incubation with 20-fold molar excess of NHS-Chromogenic-biotin (Pierce) at room temperature, and purified using Zeba 0.5 ml desalting columns (Pierce).
(§2) For C3b-C3b and C3b-fP proximity, Fabs or IgGs respectively were pre-incubated with C3b-Acceptor beads (20 μg/ml) for 60 min at room temperature. C3b-Donor beads or fP-Donor beads (20 μg/ml) were then added, and the plate was incubated overnight at room temperature before reading. For C3b-fB and C3b-fH proximity, antibodies were pre-incubated with C3b-Acceptor beads (20 μg/ml) for 60 minutes at room temperature. Biotinylated fB(D24G/N260D) or fH were then added, and incubated for 60 minutes at room temperature. SA-Donor beads were then added (20 μg/ml) and the plate was incubated overnight at room temperature before reading. Plates were read on the BMG Pherastar (ex=680, em=520-620).

The target is the same in assay [5]. In words: SPR (Biacore), C3b captured by anti-C3d antibody, Fab as analyte.
The target of assay [6] is T3, cynomolgus complement C3b protein. The assay is described as above.
Assay [7] addresses T2, human complement C3b protein. Briefly: solution equilibrium titration (SET), ECL detection, Fab.
Assay [8] has as its target T3, cynomolgus complement C3b protein. The description is as above.
The target in assay [9] is T2, human complement C3b protein. In words: bead proximity assay, C3b-acceptor beads; competitor biotinylated fH. The procedure: as §1, §2
The target is the same in assay [10]. Briefly: ELISA, C3b or C3 captured by anti-C3d antibody. The procedure: The C3b antibodies were examined to determine whether they were selective for binding to C3b relative to the C3b precursor C3. Briefly, binding selectivity for C3b was determined by performing the following steps. Coat Maxisorp plate Nunc (442404) with anti-C3d rabbit monoclonal (abcam 17453) at 2 μg/ml in Carbonate Buffer at 100 μl/well. Seal plates and incubate at 4° C. overnight. Aspirate plates and wash 3 times with PBS/0.5% Tween 20. Block plates with Diluent (PBS, 4% BSA Fraction V (Fisher ICN16006980), 0.1% Tween 20 (Sigma P1379), 0.1% Triton X-100 (Sigma P234729)) and incubate for 2 h at room temperature or overnight at 4° C. Then wash plates once with PBS/0.5% Tween 20. Dilute purified C3b (complement technologies A114 lot 21) and C3 (complement technologies A113c) at 1 μg/ml in diluent and plate 100 μl per well. Incubate for 1 h at room temperature. Then wash 3 times with PBS/0.5% Tween 20.
Dilute Fabs at 100 nM and subsequent dilutions (or higher concentration) in diluent and plate 100 μl per well. Incubate at room temperature for 1 h. Wash plates 3 times with PBS/0.5% Tween 20. Add 100 μl/well of anti-Histidine-HRP monoclonal detection antibody at 1:400 in diluent and incubate at room temperature for 1 h. Then wash 4 times with PBS/0.5% Tween 20. Add 100 μl of TMB substrate (Pierce 34028) and incubate at room temperature for up to 5 min. Add 50 μl of Stop solution (2N Sulfuric Acid) to each well and read plate at 450 nm and correct for plastic reading at 570 nm.

Assay [11] shares this target. In words: AlphaScreen bead proximity, C3b-Acceptor beads pre-incubated with antibody, then biotinylated fB(D24G/N260D) and SA-Donor beads; blocked ligand: fB [A]. The procedure: as §1, §2
Assay [12] shares this target. Briefly: AlphaScreen bead proximity, C3b-Acceptor beads pre-incubated with antibody, then biotinylated fH and SA-Donor beads; blocked ligand: fH [C]. The procedure: as §1, §2
The target is the same in assay [13]. Briefly: cell-based or functional assay. The source holds these as a separate data set.
For assay [14], the target named is T1, human C3d. Briefly: C3d binding ELISA, IgG titrated from about 0.006 to 100 nM.
In assay [15] the target is T2, human complement C3b protein. In words: AlphaScreen bead proximity, C3b-Acceptor beads pre-incubated with antibody, then C3b-Donor beads; inhibition of C3b-C3b dimer formation; unit from the axis [Antibody] nM [D]. The procedure: as §1, §2
(Alpha assays give light when donor and acceptor beads are brought close together.)

Assay [16] has the same target. Briefly: SPR (Biacore T100), C3b captured by anti-C3d antibody, IgG as analyte, 1:1 model.
For assay [17], the target named is T3, cynomolgus complement C3b protein. The description is as above.

T2 sequence (P01024 23-667 P314L, chain 1 of 2): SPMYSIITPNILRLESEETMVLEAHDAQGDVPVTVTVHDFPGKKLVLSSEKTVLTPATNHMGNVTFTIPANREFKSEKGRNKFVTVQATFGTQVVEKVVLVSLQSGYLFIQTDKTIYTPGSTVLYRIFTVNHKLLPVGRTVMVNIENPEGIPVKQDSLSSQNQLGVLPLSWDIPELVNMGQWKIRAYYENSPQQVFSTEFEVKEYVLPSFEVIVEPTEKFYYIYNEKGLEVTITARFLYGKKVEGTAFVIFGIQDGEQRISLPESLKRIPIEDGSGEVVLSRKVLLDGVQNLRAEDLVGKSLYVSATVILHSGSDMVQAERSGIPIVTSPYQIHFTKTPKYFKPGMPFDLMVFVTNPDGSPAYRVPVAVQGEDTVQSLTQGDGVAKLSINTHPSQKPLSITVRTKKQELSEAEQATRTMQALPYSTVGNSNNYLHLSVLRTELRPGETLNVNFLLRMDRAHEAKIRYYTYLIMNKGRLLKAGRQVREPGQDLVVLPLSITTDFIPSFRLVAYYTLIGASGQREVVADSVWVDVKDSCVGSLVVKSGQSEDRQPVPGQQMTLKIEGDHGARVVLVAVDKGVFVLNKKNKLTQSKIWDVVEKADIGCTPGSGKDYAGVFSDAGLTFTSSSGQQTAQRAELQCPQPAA
T2 sequence (P01024 749-1663, chain 2 of 2): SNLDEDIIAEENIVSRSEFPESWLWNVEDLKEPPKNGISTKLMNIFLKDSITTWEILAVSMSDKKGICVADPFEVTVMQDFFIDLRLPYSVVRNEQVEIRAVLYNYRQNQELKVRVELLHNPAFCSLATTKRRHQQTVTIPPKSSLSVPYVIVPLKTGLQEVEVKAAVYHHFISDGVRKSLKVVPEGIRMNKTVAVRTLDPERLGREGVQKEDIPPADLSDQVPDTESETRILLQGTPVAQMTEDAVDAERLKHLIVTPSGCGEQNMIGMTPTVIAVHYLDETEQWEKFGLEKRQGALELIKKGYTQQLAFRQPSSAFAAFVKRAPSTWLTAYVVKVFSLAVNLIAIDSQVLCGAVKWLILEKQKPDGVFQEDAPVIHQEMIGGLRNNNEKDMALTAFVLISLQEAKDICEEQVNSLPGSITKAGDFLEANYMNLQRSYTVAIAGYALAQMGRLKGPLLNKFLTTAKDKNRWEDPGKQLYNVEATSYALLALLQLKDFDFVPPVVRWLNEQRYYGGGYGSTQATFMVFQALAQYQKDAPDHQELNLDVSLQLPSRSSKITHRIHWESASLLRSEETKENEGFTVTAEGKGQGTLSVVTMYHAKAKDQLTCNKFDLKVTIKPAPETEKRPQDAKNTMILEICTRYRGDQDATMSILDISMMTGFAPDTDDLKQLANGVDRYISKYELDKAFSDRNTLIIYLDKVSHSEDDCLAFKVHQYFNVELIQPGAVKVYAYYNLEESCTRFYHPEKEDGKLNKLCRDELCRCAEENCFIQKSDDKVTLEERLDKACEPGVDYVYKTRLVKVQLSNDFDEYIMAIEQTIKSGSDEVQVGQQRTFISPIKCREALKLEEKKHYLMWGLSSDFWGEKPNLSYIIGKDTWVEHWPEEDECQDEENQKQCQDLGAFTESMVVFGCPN
T1 sequence (P01024 1002-1303 limits assumed): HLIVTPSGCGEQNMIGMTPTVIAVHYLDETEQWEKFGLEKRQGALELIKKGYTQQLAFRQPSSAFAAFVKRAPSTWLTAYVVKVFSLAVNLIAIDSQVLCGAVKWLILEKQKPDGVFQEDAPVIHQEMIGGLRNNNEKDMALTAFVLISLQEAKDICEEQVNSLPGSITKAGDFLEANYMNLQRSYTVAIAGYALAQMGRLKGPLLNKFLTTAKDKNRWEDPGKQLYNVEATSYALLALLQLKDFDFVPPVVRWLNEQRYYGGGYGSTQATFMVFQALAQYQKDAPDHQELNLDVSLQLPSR
T4 sequence (P01031 19-673 limits assumed, chain 1 of 2): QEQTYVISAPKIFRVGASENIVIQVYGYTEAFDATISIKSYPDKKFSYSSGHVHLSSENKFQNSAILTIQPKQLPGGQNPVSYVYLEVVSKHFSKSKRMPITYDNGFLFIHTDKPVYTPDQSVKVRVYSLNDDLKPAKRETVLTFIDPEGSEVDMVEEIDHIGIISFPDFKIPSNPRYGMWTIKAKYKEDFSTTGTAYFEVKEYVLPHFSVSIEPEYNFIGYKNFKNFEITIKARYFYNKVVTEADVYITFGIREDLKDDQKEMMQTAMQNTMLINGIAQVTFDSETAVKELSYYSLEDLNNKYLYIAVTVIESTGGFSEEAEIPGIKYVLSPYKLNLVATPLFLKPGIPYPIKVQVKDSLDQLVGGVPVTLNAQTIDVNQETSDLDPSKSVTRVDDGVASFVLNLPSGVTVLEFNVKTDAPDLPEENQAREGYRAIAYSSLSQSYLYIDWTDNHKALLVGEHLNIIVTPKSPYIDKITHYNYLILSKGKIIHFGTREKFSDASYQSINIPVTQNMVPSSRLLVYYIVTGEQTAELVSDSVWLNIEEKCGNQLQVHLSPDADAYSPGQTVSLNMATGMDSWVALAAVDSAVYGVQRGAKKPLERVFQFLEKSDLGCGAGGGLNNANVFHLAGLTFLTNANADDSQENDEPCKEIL
T4 sequence (P01031 678-1676 limits assumed, chain 2 of 2): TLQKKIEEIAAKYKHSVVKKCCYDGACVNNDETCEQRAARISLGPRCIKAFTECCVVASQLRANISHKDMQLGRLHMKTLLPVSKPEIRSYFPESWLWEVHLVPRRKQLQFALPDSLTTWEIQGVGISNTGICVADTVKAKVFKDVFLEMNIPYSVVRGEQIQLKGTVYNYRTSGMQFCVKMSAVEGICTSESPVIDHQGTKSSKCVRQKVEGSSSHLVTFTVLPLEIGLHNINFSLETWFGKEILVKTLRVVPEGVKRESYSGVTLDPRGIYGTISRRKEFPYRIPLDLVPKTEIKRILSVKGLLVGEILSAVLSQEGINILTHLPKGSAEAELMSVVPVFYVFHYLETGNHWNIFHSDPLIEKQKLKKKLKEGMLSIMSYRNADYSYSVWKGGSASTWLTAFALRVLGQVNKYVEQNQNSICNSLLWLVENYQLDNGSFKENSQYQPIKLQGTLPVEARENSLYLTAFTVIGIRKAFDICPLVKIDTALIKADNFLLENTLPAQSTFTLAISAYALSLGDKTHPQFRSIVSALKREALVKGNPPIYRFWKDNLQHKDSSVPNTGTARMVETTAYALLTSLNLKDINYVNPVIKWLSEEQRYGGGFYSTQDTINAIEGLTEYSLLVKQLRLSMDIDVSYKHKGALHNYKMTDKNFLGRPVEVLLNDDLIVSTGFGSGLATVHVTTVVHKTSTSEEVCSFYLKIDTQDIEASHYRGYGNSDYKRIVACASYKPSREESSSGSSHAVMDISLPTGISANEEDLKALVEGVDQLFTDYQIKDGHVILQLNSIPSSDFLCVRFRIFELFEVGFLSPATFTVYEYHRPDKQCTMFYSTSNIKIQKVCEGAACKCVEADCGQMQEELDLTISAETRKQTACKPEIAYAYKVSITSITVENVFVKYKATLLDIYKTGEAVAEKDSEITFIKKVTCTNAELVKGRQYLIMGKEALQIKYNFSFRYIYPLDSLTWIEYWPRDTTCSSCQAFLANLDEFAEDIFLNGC

B1: MOR9556 Fab format (Fab, V domains shown)
VH: EVQLVESGGGLVQPGGSLRLSCAASGFTFSSYWMTWVRQAPGKGLEWVSSIKIKPDGYAASVKGRFTISRDNSKNTLYLQMNSLRAEDTAVYYCARLFYQYFARMDYWGQGTLVTVSS
VL: DIQMTQSPSSLSASVGDRVTITCRASQDISNYLNWYQQKPGKAPKLLIYAASNLQSGVPSRFSGSGSGTDFTLTISSLQPEDFATYYCQQYDSYSPTFGQGTKVEIK
With B1, in the assay with human C3d [1], the binding result was “no binding”. Besides, in assay [2], the “C3a (nM), human, inhibition of C3a generation” value is 90 nM; the “C3b Dep (nM), human serum, IC50” value was determined as 24 nM; the “C5a (nM), human, inhibition of C5a generation” value turned out to be 17 nM; the “HA (nM), 10% human serum, IC50” value was 62 nM. In addition, the “MAC Dep (nM), human serum, IC50” value in assay [2] turned out to be 4 nM. In addition, in assay [3], the “C3b Dep (nM), cyno serum, IC50” value came out at 43 nM; the “HA (nM), 10% cyno serum, IC50” value worked out at 99 nM; the “MAC Dep (nM), cyno serum, IC50” value came out at 18 nM. The binding result with human C5 is “no binding (tested: 200 nM)”. Moreover, the IC50 in assay [4] came out at 0.15 nM. This molecule also displayed a Kd in assay [5] of 0.0066 nM. Moreover, the Kd in [6] stood at 0.042 nM. The molecule further had a Kd in [7] of 0.0015 nM. The molecule further gave a Kd in assay [8] of 0.018 nM. Also, the IC50 in assay [9] was 0.2 nM.

B2: MOR09611 IgG (antibody, V domains shown)
VH: B1 VH
VL: DIQMTQSPSSLSASVGDRVTITCRASQDISNYLNWYQQKPGKAPKLLIYAASNLQSGVPSRFSGSGSGTDFTLTISSLQPEDFATYYCQQHDTFRPTFGQGTKVEIKR
notes: Germlined human IgG1 with leucines 234 and 235 changed to alanines, kappa; also called antibody 9611
In the case of B2, the “fold binding selectivity for C3b over C3” value in assay [10] was > 1000 fold. Further, in assay [11], the “IC50 (read off the curve)” value was ~0.05 nM. Moreover, the “IC50 (read off the curve)” value in assay [12] is ~0.04 nM. In addition, in assay [13], the “MAC deposition on zymosan, IC50” value is ≤ 5 nM; the “hemolysis of rabbit red blood cells, 10% human or cynomolgus serum, IC50” value was ≤ 50 nM; the “inhibition of C3a and C5a generation during hemolysis, IC50” value was ≤ 50 nM. Besides, the binding result in the assay with human C3d [14] is reported as “no binding (tested: 100 nM)”. Also, it took 605 nM to reach a half-maximal effect in [15] (EC50). In [16], this molecule displayed a Kd of 0.000435 nM, a koff of 3.1e-06 s⁻¹ and a kon of 7.13e+06 M⁻¹ s⁻¹. In assay [17], this molecule had a Kd of 0.0183 nM, a koff of 0.000128 s⁻¹ and a kon of 6.97e+06 M⁻¹ s⁻¹.

B3: MOR9675 Fab format (Fab, V domains shown)
VH: EVQLVQSGAEVKKPGASVKVSCKASGYTFTGYYINWVRQAPGQGLEWMGIISPNQGTTGYAQKFQGRVTMTRDTSISTAYMELSSLRSEDTAVYYCARGNYDHLDYWGQGTLVTVSS
VL: DIQMTQSPSSLSASVGDRVTITCRASQGISNYLNWYQQKPGKAPKLLIYDASTLQSGVPSRFSGSGSGTDFTLTISSLQPEDFATYYCQQDWHTLPVTFGQGTKVEIK
Take B3: the binding result with human C3d [1] is “no binding”. Also, in [2], the “C3a (nM), human, inhibition of C3a generation” value was 97 nM; the “C3b Dep (nM), human serum, IC50” value came out at 11 nM; the “C5a (nM), human, inhibition of C5a generation” value is 36 nM; the “HA (nM), 10% human serum, IC50” value came out at 60 nM. Moreover, in assay [2], the “MAC Dep (nM), human serum, IC50” value turned out to be 3 nM. Moreover, in assay [3], the “C3b Dep (nM), cyno serum, IC50” value was 43 nM; the “HA (nM), 10% cyno serum, IC50” value was 92 nM; the “MAC Dep (nM), cyno serum, IC50” value amounted to 14 nM. Besides, in the assay with human C5, the binding result is reported as “no binding (tested: 200 nM)”. Also, in assay [4], the 50% inhibitory concentration (IC50) was determined as 1 nM. In assay [5], binding was characterised by a dissociation constant (Kd) of 0.121 nM. In addition, the dissociation constant Kd in assay [6] worked out at 0.562 nM. Besides, the Kd in assay [7] worked out at 0.052 nM. This molecule also showed a Kd in assay [8] of 0.241 nM. This molecule came in with an IC50 in [9] of 0.2 nM.
